Reference: patent publication US20160303245A1 (UNIVERSITY OF COPENHAGEN, published 2016)
Like-named read-outs stand apart in the source and are kept apart here. *1 amine or outer side, *2 acyl side, *3 side chain or, on linkers, in order; H or OH if unused. Where no end group is shown, it is not given here. The star is where a group is joined. γGlu = O=C(O)[C@H](CCC(=O)[*:2])N[*:1]; Stearoyl = CCCCCCCCCCCCCCCCCC(=O)*; Lauroyl = CCCCCCCCCCCC(=O)*; NPEG4 = not defined here; Ava = NCCCCC(=O)O; GABA = NCCCC(=O)O

Tests used:
[1] = molecular target: T1, PSD-95 PDZ1-2 (UniProt P78352 61-249, limits assumed); assay: FP competition vs dimeric fluorescent probe, TBS + 1% HSA (apparent)
T1 construct: domain: PDZ1-2; also called PDZ1-2 of PSD-95

[2] = molecular target: T2, Human Serum Albumin (human, UniProt P02768 25-609); assay: calculated from KD(HSA) at 150 µM HSA (equation 2)
T2 construct: Bought reagent; also called HSA

[3] = molecular target: T1, PSD-95 PDZ1-2; assay: FP competition vs dimeric fluorescent probe, TBS
[4] = molecular target: T1, PSD-95 PDZ1-2; assay: FP competition, TBS + 1% HSA, corrected for fu (free ligand)
Procedure: (§1) The FP values were fitted to a one site competition (variable slope) model in GraphPad Prism. […] The modified FP assay was conducted as described above with 1% HSA in the assay.

[5] = molecular target: T2, Human Serum Albumin; assay: calculated from KD at 588 µM HSA (equation 2)
Procedure: (§2) The assay kit consisted of prefilled wells with increasing concentrations of immobilized HSA as well as two control wells without HSA. The HSA had been immobilized in a random fashion to ensure that all binding sites on HSA were available. To conduct the assay, the wells were incubated with a known concentration of the tested compounds, and the unbound amount of compound was quantified using analytical RP-HPLC (C8 column). The fraction of unbound drug (fᵤ) for each data point was calculated from the RP-HPLC data by comparison to a control sample without HSA.

[6] = molecular target: T2, Human Serum Albumin; assay: Transil XL HSA binding kit (immobilized HSA), unbound compound by RP-HPLC
Procedure: as §2

[7] = molecular target: T2, Human Serum Albumin; assay: calculated from KD(HSA) at 150 µM HSA (equation 2); remark: listed apart in the source
[8] = molecular target: T2, Human Serum Albumin; assay: Transil XL HSA binding kit (immobilized HSA), unbound compound by RP-HPLC; remark: listed apart in the source
Procedure: as §2

[9] = molecular target: T1, PSD-95 PDZ1-2; assay: FP competition, TBS + 1% HSA
Procedure: as §1
The synthesized FA-linked dimeric ligands were evaluated for their affinity to PSD-95 PDZ1-2 in the FP assay.

[10] = molecular target: T1, PSD-95 PDZ1-2; assay: FP competition vs dimeric fluorescent probe, TBS + 1% HSA (apparent); remark: listed apart in the source
Procedure: as §1

[11] = molecular target: T1, PSD-95 PDZ1-2; assay: FP competition, TBS + 1% HSA, corrected for fu (free ligand); remark: listed apart in the source
[12] = molecular target: T1, PSD-95 PDZ1-2; assay: FP competition vs dimeric fluorescent probe, TBS; remark: listed apart in the source

T1 sequence (P78352 61-249 limits assumed): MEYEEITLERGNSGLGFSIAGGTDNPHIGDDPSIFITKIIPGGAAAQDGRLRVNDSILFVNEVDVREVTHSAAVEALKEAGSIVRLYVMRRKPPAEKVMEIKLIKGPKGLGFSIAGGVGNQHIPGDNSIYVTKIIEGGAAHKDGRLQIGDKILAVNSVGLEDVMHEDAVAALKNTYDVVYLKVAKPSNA

| Binder | Ki [1] [nM] | fu (%), fraction unbound [2] [%] | Ki [3] [nM] | Ki [4] [nM] | fb (%), fraction bound to HSA [5] [%] | Kd [6] [nM] | fu (%), fraction unbound [7] [%] | Kd [8] [nM] | fold affinity loss in TBS+HSA [9] [fold] | fold lower apparent affinity than the dimeric ligands linked to the shorter FAs (C12:0 or C11:0-COOH) [9] [fold] | Ki [10] [nM] | Ki [11] [nM] | Ki [12] [nM] |
| --- | --- | --- | --- | --- | --- | --- | --- | --- | --- | --- | --- | --- | --- |
| {Lauroyl-GABA-NPEG4}-IETAV (not fully specified; reading uncertain; also: dimer: two chains joined at N-termini through NPEG4, Synthetic dimer NPEG4(IETAV)2 with fatty acid on the linker nitrogen; also called compound 1) [FA-linked dimeric ligand 1] | 27.2 | 15.1 | 13.6 | 3.2 | 95.7 | 26600 |  |  |  |  |  |  |  |
| {Stearoyl-GABA-NPEG4}-IETDV (not fully specified; reading uncertain; also: dimer: two chains joined at N-termini through NPEG4, IETDV analogue of compound 3, synthesized analogously to 1-12; also called compound 13) [FA-linked dimeric ligand 13] |  |  |  |  |  |  | 35.6 | 83000 |  |  |  |  |  |
| {Lauroyl-γGlu-NPEG4}-IETAV (not fully specified; reading uncertain; also: dimer: two chains joined at N-termini through NPEG4, Synthetic dimer NPEG4(IETAV)2 with fatty acid on the linker nitrogen; also called compound 5) [FA-linked dimeric ligand 5] | 24 | 14.7 | 30.2 | 2.4 | 95.8 | 25800 |  |  |  |  |  |  |  |
| {C11:0‑COOH acyl-γGlu-NPEG4}-IETAV (not fully specified; reading uncertain; also: dimer: two chains joined at N-termini through NPEG4, linker taken from row above (blank cell), Synthetic dimer NPEG4(IETAV)2 with fatty acid on the linker nitrogen; also called compound 6) [FA-linked dimeric ligand 6] | 26.4 | 30.1 | 33.7 | 7 | 90.1 | 64600 |  |  |  |  |  |  |  |
| {Stearoyl-γGlu-NPEG4}-IETAV (not fully specified; reading uncertain; also: dimer: two chains joined at N-termini through NPEG4, Synthetic dimer NPEG4(IETAV)2 with fatty acid on the linker nitrogen; also called compound 7) [FA-linked dimeric ligand 7] | 1390 | 4.3 | 17 | 59.1 | 98.9 | 6800 | 4.3 | 6800 | 50 | > 50 | 1390 | 59.1 | 17 |
| {Stearoyl-GABA-NPEG4}-IETAV (not fully specified; reading uncertain; also: dimer: two chains joined at N-termini through NPEG4, Synthetic dimer NPEG4(IETAV)2 with fatty acid on the linker nitrogen; also called compound 3) [FA-linked dimeric ligand 3] | 1890 | 3.1 | 11.1 | 57.2 | 99.2 | 4800 | 3.1 | 4800 | 50 | > 50 | 1890 | 57.2 | 11.1 |
| {C17:0‑COOH acyl-GABA-NPEG4}-IETAV (not fully specified; reading uncertain; also: dimer: two chains joined at N-termini through NPEG4, Synthetic dimer NPEG4(IETAV)2 with fatty acid on the linker nitrogen; also called compound 4) [FA-linked dimeric ligand 4] | 5720 | 11.5 | 11.4 | 654 | 96.5 | 19400 | 11.5 | 19400 |  | > 50 | 5720 | 654 | 11.4 |
| {C17:0‑COOH acyl-γGlu-NPEG4}-IETAV (not fully specified; reading uncertain; also: dimer: two chains joined at N-termini through NPEG4, linker taken from rows above (blank cell), Synthetic dimer NPEG4(IETAV)2 with fatty acid on the linker nitrogen; also called compound 8) [FA-linked dimeric ligand 8] | 3590 | 18.6 | 9.2 | 669 | 94.5 | 34300 |  |  |  | > 50 |  |  |  |
| {Stearoyl-Ava-NPEG4}-IETAV (not fully specified; reading uncertain; also: dimer: two chains joined at N-termini through NPEG4, linker taken from rows above (blank cell), Synthetic dimer NPEG4(IETAV)2 with fatty acid on the linker nitrogen; also called compound 11) [FA-linked dimeric ligand 11] | 1890 | 7.8 | 26.5 | 16.8 | 97.9 | 12700 |  |  | 50 | > 50 |  |  |  |
| {C17:0‑COOH acyl-Ava-NPEG4}-IETAV (not fully specified; reading uncertain; also: dimer: two chains joined at N-termini through NPEG4, linker taken from rows above (blank cell), Synthetic dimer NPEG4(IETAV)2 with fatty acid on the linker nitrogen; also called compound 12) [FA-linked dimeric ligand 12] | 2930 | 8.3 | 11.5 | 250 | 96.2 | 23500 |  |  |  | > 50 |  |  |  |
| IETAV (not fully specified; also: dimer: N-termini of two peptides joined through NPEG4 linker, Synthetic dimer NPEG4(IETAV)2 with fatty acid on the linker nitrogen; also called compound 9) [FA-linked dimeric ligand 9] | 13.4 | 27.1 | 20.5 | 2.6 | 91.4 | 55700 |  |  |  |  |  |  |  |
| {C11:0‑COOH acyl-Ava-NPEG4}-IETAV (not fully specified; reading uncertain; also: dimer: two chains joined at N-termini through NPEG4, linker taken from row above (blank cell), Synthetic dimer NPEG4(IETAV)2 with fatty acid on the linker nitrogen; also called compound 10) [FA-linked dimeric ligand 10] | 18.5 | 61.5 | 13.9 | 10.9 | 71 | 240000 |  |  |  |  |  |  |  |
| IETAV (also: dimer: two peptides joined by a linker, no fatty acid, also called dimeric ligand UCCB01-125) [UCCB01-125] | 9.7 | 50.7 | 14.3 | 4.1 | 77.6 | 154000 |  |  |  |  |  |  |  |
| {C11:0‑COOH acyl-GABA-NPEG4}-IETAV (not fully specified; reading uncertain; also: dimer: two chains joined at N-termini through NPEG4, linker taken from row above (blank cell), Synthetic dimer NPEG4(IETAV)2 with fatty acid on the linker nitrogen; also called compound 2) [FA-linked dimeric ligand 2] | 27.9 | 24.7 | 15.4 | 5.5 | 92.3 | 49300 |  |  |  |  |  |  |  |
